Patent US20130150301A1 (KAI PHARMACEUTICALS, published 2013)
Ends that are not written are not given here.

T1: human calcium-sensing receptor (CaSR) (human, UniProt P41180 20-1078)
T1 sequence (looked up): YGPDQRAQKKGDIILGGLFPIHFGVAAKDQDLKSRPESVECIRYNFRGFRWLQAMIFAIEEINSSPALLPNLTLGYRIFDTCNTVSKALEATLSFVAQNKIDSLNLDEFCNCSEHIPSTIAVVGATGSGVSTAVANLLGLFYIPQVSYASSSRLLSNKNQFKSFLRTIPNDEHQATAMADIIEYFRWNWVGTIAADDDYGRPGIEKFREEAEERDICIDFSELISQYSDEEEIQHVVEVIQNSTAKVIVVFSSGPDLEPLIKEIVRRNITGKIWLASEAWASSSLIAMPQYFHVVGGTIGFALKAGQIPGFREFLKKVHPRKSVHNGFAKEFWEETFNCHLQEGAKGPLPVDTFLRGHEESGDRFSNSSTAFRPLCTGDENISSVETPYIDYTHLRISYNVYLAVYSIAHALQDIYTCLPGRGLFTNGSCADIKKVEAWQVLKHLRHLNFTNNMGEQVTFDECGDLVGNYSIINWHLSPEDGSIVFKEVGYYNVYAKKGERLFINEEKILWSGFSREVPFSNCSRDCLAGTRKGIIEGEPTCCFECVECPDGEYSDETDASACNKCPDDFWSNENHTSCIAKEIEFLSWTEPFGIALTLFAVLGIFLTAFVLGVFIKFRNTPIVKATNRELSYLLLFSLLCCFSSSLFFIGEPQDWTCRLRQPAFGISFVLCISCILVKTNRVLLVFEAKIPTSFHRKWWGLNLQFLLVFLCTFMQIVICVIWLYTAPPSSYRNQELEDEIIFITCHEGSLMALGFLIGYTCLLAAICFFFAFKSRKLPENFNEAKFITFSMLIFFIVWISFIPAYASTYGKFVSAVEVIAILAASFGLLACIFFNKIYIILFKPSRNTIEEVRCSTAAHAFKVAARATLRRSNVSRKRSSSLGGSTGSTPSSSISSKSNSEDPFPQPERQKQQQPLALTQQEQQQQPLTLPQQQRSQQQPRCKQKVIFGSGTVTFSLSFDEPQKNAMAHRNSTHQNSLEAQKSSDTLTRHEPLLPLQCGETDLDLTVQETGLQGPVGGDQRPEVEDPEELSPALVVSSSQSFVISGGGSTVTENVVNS

B1: c(C)arrrar-NH2 (SEQ ID NO: 60) (peptide)
peptide: XXXXXXX
modifications: no N-terminal cap; C-terminal amide; all D-residues; L-Cys (C) attached to the side chain of D-Cys 1
B2: Ac-bAla-crrrrrr-NH2 (SEQ ID NO: 30) (peptide)
peptide: XXXXXXXX
modifications: acetylated beta-alanine (Ac-bAla) at the N-terminus; C-terminal amide; D-Cys and six D-Arg
B3: Ac-carrrar-OH (SEQ ID NO: 74) (peptide)
peptide: XXXXXXX
modifications: N-terminal acetyl; free C-terminal acid (-OH); all D-residues
B4: Ac-C(C)arrrar-NH2 (SEQ ID NO: 34) (peptide)
peptide: XXXXXXX
modifications: not fully specified; N-terminal acetyl; C-terminal amide; L-Cys 1 conjugated via a disulfide linkage to an L-Cys residue (C); residues 2-7 D
B5: Ac-carrrrr-NH2 (SEQ ID NO: 8) (peptide)
peptide: XXXXXXX
HELM: PEPTIDE1{[ac].[dC].[dA].[dR].[dR].[dR].[dR].[dR].[am]}$$$$V2.0
SMILES: CC(=O)N[C@H](CS)C(=O)N[C@H](C)C(=O)N[C@H](CCCNC(=N)N)C(=O)N[C@H](CCCNC(=N)N)C(=O)N[C@H](CCCNC(=N)N)C(=O)N[C@H](CCCNC(=N)N)C(=O)N[C@H](CCCNC(=N)N)C(N)=O
B6: conjugate of SEQ ID NO: 46 (CPDYHDAGI) and SEQ ID NO: 47 (Ac-CYGRKKRRQRRR-NH2) (peptide)
peptide 1: CPDYHDAGI
peptide 2: Ac-CYGRKKRRQRRR-NH2
modifications: not fully specified; cysteine pairing not given here
B7: Ac-c(Mpa)arrrar-NH2 (SEQ ID NO: 56) (peptide)
peptide: XXXXXXX
modifications: N-terminal acetyl; C-terminal amide; all D-residues; mercaptopropionic acid (Mpa) attached to the side chain of D-Cys 1
B8: Ac-crrrr-NH2 (SEQ ID NO: 4) (peptide)
peptide: XXXXX
modifications: N-terminal acetyl; C-terminal amide; all D-residues
B9: Ac-c(C)arrrar-NH2 (SEQ ID NO: 3) (peptide)
peptide: XXXXXXX
modifications: N-terminal acetyl; C-terminal amide; all seven residues D; D-Cys 1 conjugated via a disulfide linkage to an L-Cys residue (C)
B10: Ac-carrrar-NH2 (SEQ ID NO: 26) (peptide)
peptide: XXXXXXX
modifications: N-terminal acetyl; C-terminal amide; all D-residues
B11: Ac-crrarrr-NH2 (SEQ ID NO: 10) (peptide)
peptide: XXXXXXX
HELM: PEPTIDE1{[ac].[dC].[dR].[dR].[dA].[dR].[dR].[dR].[am]}$$$$V2.0
SMILES: CC(=O)N[C@H](CS)C(=O)N[C@H](CCCNC(=N)N)C(=O)N[C@H](CCCNC(=N)N)C(=O)N[C@H](C)C(=O)N[C@H](CCCNC(=N)N)C(=O)N[C@H](CCCNC(=N)N)C(=O)N[C@H](CCCNC(=N)N)C(N)=O
B12: Ac-YGRKKRRQRRR-NH2 (SEQ ID NO: 48) (peptide)
peptide: Ac-YGRKKRRQRRR-NH2
B13: crrrrrr-NH2 (SEQ ID NO: 80) (peptide)
peptide: XXXXXXX
modifications: no N-terminal cap; C-terminal amide; all D-residues
B14: Ac-dHcy rrrrrr-NH2 (SEQ ID NO: 32) (peptide)
peptide: XXXXXXX
modifications: N-terminal acetyl; C-terminal amide; D-homocysteine (dHcy) at position 1; D-Arg 2-7
B15: Ac-c(Ac-C)arrrar-NH2 (SEQ ID NO: 55) (peptide)
peptide: XXXXXXX
modifications: N-terminal acetyl; C-terminal amide; all D-residues; N-acetylated L-Cys (Ac-C) attached to the side chain of D-Cys 1
B16: Ac-crrrrra-NH2 (SEQ ID NO: 13) (peptide)
peptide: XXXXXXX
HELM: PEPTIDE1{[ac].[dC].[dR].[dR].[dR].[dR].[dR].[dA].[am]}$$$$V2.0
SMILES: CC(=O)N[C@H](CS)C(=O)N[C@H](CCCNC(=N)N)C(=O)N[C@H](CCCNC(=N)N)C(=O)N[C@H](CCCNC(=N)N)C(=O)N[C@H](CCCNC(=N)N)C(=O)N[C@H](CCCNC(=N)N)C(=O)N[C@H](C)C(N)=O
B17: Ac-cArrrAr-NH2 (SEQ ID NO: 43) (peptide)
peptide: XAXXXAX
modifications: N-terminal acetyl; C-terminal amide; D-Cys 1, L-Ala 2 and 6, D-Arg 3, 4, 5 and 7
B18: Ac-c(Benzoyl)rrrrrr-NH2 (SEQ ID NO: 81) (peptide)
peptide: XXXXXXX
modifications: N-terminal acetyl; C-terminal amide; all D-residues; benzoyl attached to the side chain of D-Cys 1
B19: Ac-c(GS)rrrrrr-NH2 (SEQ ID NO: 53) (peptide)
peptide: XXXXXXX
modifications: not fully specified; N-terminal acetyl; C-terminal amide; all D-residues; oxidized glutathione (GS) attached to the side chain of D-Cys 1
B20: Ac-cygrkkrrqrrr-NH2 (SEQ ID NO: 50) (peptide)
peptide: XXXXXXXXXXXX
modifications: N-terminal acetyl; C-terminal amide; all D-residues (glycine printed in lower case)
B21: Ac-crarrrr-NH2 (SEQ ID NO: 9) (peptide)
peptide: XXXXXXX
HELM: PEPTIDE1{[ac].[dC].[dR].[dA].[dR].[dR].[dR].[dR].[am]}$$$$V2.0
SMILES: CC(=O)N[C@H](CS)C(=O)N[C@H](CCCNC(=N)N)C(=O)N[C@H](C)C(=O)N[C@H](CCCNC(=N)N)C(=O)N[C@H](CCCNC(=N)N)C(=O)N[C@H](CCCNC(=N)N)C(=O)N[C@H](CCCNC(=N)N)C(N)=O
B22: Ac-c(acetyl)rrrrrr-NH2 (SEQ ID NO: 82) (peptide)
peptide: XXXXXXX
modifications: N-terminal acetyl; C-terminal amide; all D-residues; acetyl attached to the side chain of D-Cys 1
B23: Ac-c(PEG5-C)rrrrrr-NH2 (SEQ ID NO: 58) (peptide)
peptide: XXXXXXX
modifications: N-terminal acetyl; C-terminal amide; all D-residues; L-Cys carrying a 5 kDa polyethylene glycol (PEG5-C) attached to the side chain of D-Cys 1
B24: Ac-CYGRKKRRQRRR-NH2 (SEQ ID NO: 47) (peptide)
peptide: Ac-CYGRKKRRQRRR-NH2
B25: Ac-bAla-c(C)arrrar-NH2 (SEQ ID NO: 61) (peptide)
peptide: XXXXXXXX
modifications: acetylated beta-alanine (Ac-bAla) at the N-terminus; C-terminal amide; carrrar all D; L-Cys (C) attached to the side chain of the D-Cys
B26: Ac-cGrrrGr-NH2 (SEQ ID NO: 42) (peptide)
peptide: XGXXXGX
modifications: N-terminal acetyl; C-terminal amide; D-Cys 1, Gly 2 and 6, D-Arg 3, 4, 5 and 7
B27: Ac-CARRRAR-NH2 (SEQ ID NO: 75) (peptide)
peptide: Ac-CARRRAR-NH2
B28: Ac-CaRrRaR-NH2 (SEQ ID NO: 44) (peptide)
peptide: CXRXRXR
modifications: N-terminal acetyl; C-terminal amide; L-Cys 1, D-Ala 2, L-Arg 3, D-Arg 4, L-Arg 5, D-Ala 6, L-Arg 7
B29: Ac-caaarrrrrr-NH2 (SEQ ID NO: 77) (peptide)
peptide: XXXXXXXXXX
HELM: PEPTIDE1{[ac].[dC].[dA].[dA].[dA].[dR].[dR].[dR].[dR].[dR].[dR].[am]}$$$$V2.0
SMILES: CC(=O)N[C@H](CS)C(=O)N[C@H](C)C(=O)N[C@H](C)C(=O)N[C@H](C)C(=O)N[C@H](CCCNC(=N)N)C(=O)N[C@H](CCCNC(=N)N)C(=O)N[C@H](CCCNC(=N)N)C(=O)N[C@H](CCCNC(=N)N)C(=O)N[C@H](CCCNC(=N)N)C(=O)N[C@H](CCCNC(=N)N)C(N)=O
B30: conjugate of SEQ ID NO: 45 (CHDAPIGYD) and SEQ ID NO: 47 (Ac-CYGRKKRRQRRR-NH2) (peptide)
peptide 1: CHDAPIGYD
peptide 2: Ac-CYGRKKRRQRRR-NH2
modifications: not fully specified; cysteine pairing not given here; also: further groups not given here

Tests used:
[1] = target: T1, human calcium-sensing receptor (CaSR); assay: cell-based or functional assay
[2] = target: T1, human calcium-sensing receptor (CaSR); assay: cell-based or functional assay; remark: listed apart in the source

Row | Binder | EC50 (IP1 production in HEK293 cells that express the human CaSR) [1] [µM] | further results
1 | B1 | 3.1 | –
2 | B2 | 1 | –
3 | B3 | 31 | –
4 | B4 | 2.5 | –
5 | B5 | – | fold loss in in vitro potency against Ac-crrrrrr-NH2 (SEQ ID NO:6), human CaSR assay in HEK 293 cells [2]: ~2 fold
6 | B6 | 21 | –
7 | B7 | 21 | –
8 | B8 | 16 | shift in potency (HEK-293 in vitro cell assay), 4 against 5 arginine subunits [2]: > 10 fold
9 | B9 | 10 | –
10 | B10 | – | fold difference in potency against the CaSR, against Ac-crrrrrr-NH2 (SEQ ID NO:6) [2]: ~3 fold
11 | B11 | – | fold loss in in vitro potency against Ac-crrrrrr-NH2 (SEQ ID NO:6), human CaSR assay in HEK 293 cells [2]: ~2 fold
12 | B12 | 16 | –
13 | B13 | 1.1 | –
14 | B14 | 2 | –
15 | B15 | 21 | –
16 | B16 | – | fold loss in in vitro potency against Ac-crrrrrr-NH2 (SEQ ID NO:6), human CaSR assay in HEK 293 cells [2]: ~2 fold
17 | B17 | > 1000 | fold decrease in potency against Ac-carrrar-NH2 (SEQ ID NO:26) [2]: > 600 fold; fold difference in potency against the CaSR, against Ac-crrrrrr-NH2 (SEQ ID NO:6) [2]: > 2000 fold
18 | B18 | 3.6 | –
19 | B19 | 7.8 | –
20 | B20 | 2 | –
21 | B21 | – | fold loss in in vitro potency against Ac-crrrrrr-NH2 (SEQ ID NO:6), human CaSR assay in HEK 293 cells [2]: ~2 fold
22 | B22 | 4.1 | –
23 | B23 | 0.58 | –
24 | B24 | 4.5 | –
25 | B25 | 2.6 | –
26 | B26 | – | fold reduction in potency against Ac-carrrar-NH2 (SEQ ID NO:26) [2]: < 8 fold
27 | B27 | 58 | –
28 | B28 | 5.6 | fold difference in potency against Ac-carrrar-NH2 (SEQ ID NO:26) [2]: < 4 fold; fold difference in potency against the CaSR, against Ac-crrrrrr-NH2 (SEQ ID NO:6) [2]: 10 fold
29 | B29 | 4.6 | –
30 | B30 | 21 | –
